Experimental data reported in the DeepSol protein solubility set.

Test: soluble on expression in E. coli; label from the status in PepcDB or PDB records

Sequence | soluble on expression in E. coli
MGSSHHHHHHSSGLVPRGSHMSLKHFLNTQDWSRAELDALLTQAALFKRNKLGSELKGKSIALVFFNPSMRTRTSFELGAFQLGGHAVVLQPGKDAWPIEFNLGTVMDGDTVEHIAEVARVLGRYVDLIGVRAFPKFVDWSKDREDQVLKSFAKYSPVPVINMETITHPCQELAHALALQEHFGTPDLRGKKYVLTWTYHPKPLNTAVANSALTIATRMGMDVTLLCPTPDYILDERYMDWAAQNVAESGGSLQVSHDIDSAYAGADVVYAKSWGALPFFGNWEPEKPIRDQYQHFIVDERKMALTNNGVFSHCLPLRRNVKATDAVMDSPNCIAIDEAENRLHVQKAIMAALVGQSRP | soluble
MTKPIIGITANQRLNMALDNLPWSYAPTGFVQAVTQSGGLPLLLPIGDEAAAKTYVSMVDKIILIGGQNVDPKYYQEEKAAFDDDFSPERDTFELAIIKEAITLKKPILGICRGTQLMNVALGGNLNQHIDSHWQEAPSDFLSHEMIIEPDSILYPIYGHKTLINSFHRQSLKTVAKDLKVIARDPRDGTIEAVISTNDAIPFLGVQWHPELLQGVRDEDLQLFRLFVNDF | not soluble
MDLPQEIETNMECPVCGSLLYLLTYDTDIPYEGRISIYTYQCKKCMYRKTEVYQEEEKNPVRITLKIESPEDLKTLVYRSRKADIYIPEIEASIDSAEYANGEITTVEGIIYRIGEKLDLLSYDDEEKEAVKEVRKKIDDIINGYFGSFTLIITDESGKSVIESEKAITEKILEHHHHHH | not soluble
MSDADSQKQIKLTSSDDKTFTVSRKVISQSKTITDIIQNLGIEESGSTSEDTIPLQKVTSTILEKIITWCEHHADDEPKKVDENKKTVDISEWDAEFMKVDQGTLFEIILAANYLDIRGLLDVTTQNVANMMKGKTPSQIRTLFNIENDFSEEEREAMKKENAWCED | not soluble
MKKLKMKKLISLLLTLTMILALTACGAKETGKSQDESDLNYVKSKGKLIIGYTNYAPMNYTDENGVFTGFDTELAILTCEKLGVEPEFVEINWDTKEVELNAKSIDCIWNGLTIDDDRKAKMEITQPYVKNAQVVLVKEGTEYNGTESLIGKTVVAEQSSAGEKTIMADENLKKANYVPKTLQTDCLMELKSGTADAAVLDLTLAKTMTGEGTSYEDIVIVDYLAEENYGVAFRKGSDICAEVNKIFDDFLADGTMAALAEKYGLELAE | not soluble
QLPTIYAITPTYSRPVQKAELTRLANTFRQVAQLHWILVEDAAARSELVSRFLARAGLPSTHLHVPTPRRYKRPGLPRATEQRNAGLAWLRQRHQHQRAQPGVLFFADDDNTYSLELFQEMRTTRKVSVWPVGLVGGRRYERPLVENGKVVGWYTGWRADRPFAIDMAGFAVSLQVILSNPKAVFKRRGSQPGMQESDFLKQITTVEELEPKANNCTKVLVWHTRTEKVNLANEPKYHLDTVKIEV | soluble
LKELHILTRDGKINQDTRRKLKQVYHLYQFIEPLMADVLEKKGAMTLADHGAGKSYLGFILYDLFLKEKAAGHVYGVETRQELVDKSRELAERLGFERMGFLNLTVEQSITSTALPEQVDIITALHACNTATDDAIRFALAKDAQYIVLVPCCQAEVASVLRQKKNETFGKTPLSELWRHPIHTRE | not soluble
SLENKIVKIEPQSIAEEMGIEVGDSLISINGKEVKDIIDYRFLMADEYVVVKIQKTNKEIWELEIEKEYDEKLGVEFESGILDSAKSCRNKCIFCFIDQLPKGMRKTLYFKDDDSRLSFLQGNFVTLTNMSDDDIDRIIKYRISPINISVQTTNPELRKKMLNNKFAGNLMERMKKLSNAGITMNCQVVLCPGINSGEEFSKTVNDLYKLYPSVKNIAGVPVGITSYREGLFNMVPYDSQSALKEIENIKPIQEKFIKEIGSPFVRLSDEFYVLSGIPIPKAEFYGEFEQFEDGIGMIRTFRDNINMSLDNLKDGIHKSFTMVTGVLAYEEIENAAKMLMEKSRGLKINVIKVINEFFGEKITVAGLLTGRDILNYLKRNEVGDYIILPSNMLKSDEDVFLDDVKVLDIEKELNKKVLVCNYSGEDLVDIINKNGREE | soluble
MGSWGMEALESDEGLDLINWVEEQLQDDSTFDAESIVQRLSQHEDLFGFQGDEEFLYDNNVIGLVELIIQKAAGEKITSSKQIDQLDSYRLTSIFSKKLQGRLQTIDDTHEWIMLFEGRAREKAKAYLIEITDKLRVVKTTA | soluble
